{"source": "patent US12366576B2", "about": "“Compositions, assays, and methods for direct modulation of fatty acid metabolism” (Dana-Farber Cancer Institute, Inc., priority 2016, dated 2025)", "key": {"endogenous MCL-1": {"test_system": "endogenous MCL-1", "sequence (P97287 152-308 limits assumed)": "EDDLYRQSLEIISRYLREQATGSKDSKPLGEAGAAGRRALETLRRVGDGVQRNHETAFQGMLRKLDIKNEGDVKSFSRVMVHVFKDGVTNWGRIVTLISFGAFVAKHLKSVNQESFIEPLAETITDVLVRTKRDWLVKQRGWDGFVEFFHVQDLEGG", "assay": "Biotinylated SAHB pulldown from MEF lysates, anti-MCL-1 Western analysis", "format": "binding, mouse", "conditions": "summary, pull-downs", "method": "An exploratory proteomics analysis was conducted to identify proteins that interact with the MCL-1 BH3 domain helix. An extensive library of MCL-1 stapled BH3 peptides (FIG. 2) was generated to both identify novel protein interactors by mass spectrometry and then deploy the stapled peptide constructs as novel probes to dissect and pharmacologically modulate the identified protein interactors and associated signaling pathways. As an example, an N-terminally biotinylated stapled peptide designed based on the sequence of MCL-1's BH3 domain (Btn-MCL-1 SAHBD), or vehicle, was incubated with wild-type mouse embryonic fibroblast (MEF) lysates, followed by high stringency streptavidin capture. To validate the proteomics workflow and ensure that Btn-MCL-1 SAHBD could, in fact, engage protein interactors in a lysate, eluates were first run on a gel for anti-MCL-1 Western analysis. […] For mass spectrometry (MS) analysis, eluates were run on a reducing/denaturing gel followed by Coomassie staining (FIG. 4) and in-gel digestion was performed before injection on the instrument.\nThe binding determinants for the MCL-1 BH3/VLCAD interaction were investigated by generating a series of biotinylated MCL-1 SAHBD alanine point mutants (FIG. 18A) and performing streptavidin pull-downs from MEF lysates, followed by VLCAD and MCL-1 western analysis of the resulting eluates. […] Native alanines and residues not mutated are colored white.\nWild-type MEFs were trypsinized, washed once with cold PBS, and lysed on ice with NP-40 lysis buffer (50 mM Tris, pH 7.4, 150 mM NaCl, 0.5% (v/v) NP-40, complete protease inhibitor pellet (Roche)) using 1 ml of lysis buffer for every 10 million cells lysed. Cellular debris was pelleted at 14,000 g for 10 min at 4° C., and the supernatant was quantified using the BCA Protein Assay Kit (Thermo Fisher Scientific). 2 mg of lysate per pulldown were then exposed to 50 μL of pre-equilibrated High Capacity Streptavidin Agarose beads (Thermo Fisher Scientific). […] The beads were then pelleted and washed with NP-40 lysis buffer three times before eluting the protein sample from the beads by heating at 70° C. for 10 min in SDS loading buffer. Samples were then subjected to electrophoresis and either Western analysis or Coomassie stain (SimplyBlue Safe Stain, Thermo Fisher Scientific). […] Coomassie stained gels were then processed for proteomics analysis (see below). Biotinylated SAHB pulldowns of recombinant protein were performed as above incubating 5 nmol of SAHB with 10 pmol of rVLCAD in 500 μL total volume. Densitometry analyses were performed using ImageJ software."}, "native VLCAD": {"target": "T1, native VLCAD (Mus musculus, UniProt P50544)", "T1 construct": "As for native VLCAD from MEF lysates; endogenous in cells; host or cells: SV-40-transformed wild-type mouse embryonic fibroblasts (lysate)", "T1 sequence (P50544 42-656)": "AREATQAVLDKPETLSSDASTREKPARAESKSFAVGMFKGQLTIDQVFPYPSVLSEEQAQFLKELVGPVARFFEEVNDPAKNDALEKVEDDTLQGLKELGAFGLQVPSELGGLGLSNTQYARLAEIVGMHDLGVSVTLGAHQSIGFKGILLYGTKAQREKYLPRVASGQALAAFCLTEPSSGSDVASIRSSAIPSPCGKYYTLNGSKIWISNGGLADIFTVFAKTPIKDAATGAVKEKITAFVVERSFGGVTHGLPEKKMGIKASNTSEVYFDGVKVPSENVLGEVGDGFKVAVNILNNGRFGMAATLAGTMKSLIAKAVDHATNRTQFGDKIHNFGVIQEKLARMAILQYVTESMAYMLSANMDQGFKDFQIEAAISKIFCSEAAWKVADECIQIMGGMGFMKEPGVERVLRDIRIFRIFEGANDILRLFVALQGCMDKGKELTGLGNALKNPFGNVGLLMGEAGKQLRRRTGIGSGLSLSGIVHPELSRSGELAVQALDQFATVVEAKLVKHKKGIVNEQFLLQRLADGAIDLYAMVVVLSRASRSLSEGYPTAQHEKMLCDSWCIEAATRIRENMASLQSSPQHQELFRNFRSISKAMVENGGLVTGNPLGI", "assay": "Biotinylated SAHB pulldown from MEF lysates, anti-VLCAD Western analysis", "format": "binding", "conditions": "for summary of binding properties: binding to VLCAD: pull-downs and ITC", "text": "To validate the MS result, the pulldowns were repeated and eluates run on a gel for anti-VLCAD Western blot analysis. […] All peptides faithfully recapitulated native BH3-binding propensities for endogenous MCL-1 protein (FIG. 8). The eluates were then probed for the other members of the acyl-CoA dehydrogenase family that manifest shorter fatty acid substrate specificities. MCL-1 SAHBD was able to pull down VLCAD, but not MCAD or SCAD (FIG. 9). Because the traditional MCL-1 staple location differs from that of the BIM, BID, and BAD SAHBs, it was important to confirm that the observed VLCAD binding specificity was due to BH3 sequence selectivity, not staple position. A BIM SAHB with the traditional MCL-1 staple (BIM SAHBF), and a MCL-1 stapled peptide with the traditional BIM staple (MCL-1 SAHBA), were generated. […] To confirm that the selective interaction between MCL-1 SAHBD and VLCAD is direct, recombinant VLCAD was generated and purified by size exclusion chromatography (FIGS. 11 and 12).\nThe binding determinants for the MCL-1 BH3/VLCAD interaction were investigated by generating a series of biotinylated MCL-1 SAHBD alanine point mutants (FIG. 18A) and performing streptavidin pull-downs from MEF lysates, followed by VLCAD and MCL-1 western analysis of the resulting eluates. […] Native alanines and residues not mutated are colored white. The dotted semicircles highlight the distinctive MCL-1 BH3 binding interfaces for VLCAD versus MCL-1 engagement, as defined by the differential sensitivities to alanine mutagenesis.\nWild-type MEFs were trypsinized, washed once with cold PBS, and lysed on ice with NP-40 lysis buffer (50 mM Tris, pH 7.4, 150 mM NaCl, 0.5% (v/v) NP-40, complete protease inhibitor pellet (Roche)) using 1 ml of lysis buffer for every 10 million cells lysed. Cellular debris was pelleted at 14,000 g for 10 min at 4° C., and the supernatant was quantified using the BCA Protein Assay Kit (Thermo Fisher Scientific). 2 mg of lysate per pulldown were then exposed to 50 μL of pre-equilibrated High Capacity Streptavidin Agarose beads (Thermo Fisher Scientific). The pre-cleared lysates were then incubated with 15 nmol biotinylated SAHBs (or vehicle, 1.5% (v/v) DMSO) overnight at 4° C., followed by addition of 50 μL of pre-equilibrated High Capacity Streptavidin Agarose beads for 2 hours at 4° C. The beads were then pelleted and washed with NP-40 lysis buffer three times before eluting the protein sample from the beads by heating at 70° C. for 10 min in SDS loading buffer. Samples were then subjected to electrophoresis and either Western analysis or Coomassie stain (SimplyBlue Safe Stain, Thermo Fisher Scientific). The antibodies used for Western analysis were the following: MCL-1 (Rockland 600-401-394; 1:1000 in 3% BSA), VLCAD (Thermo Fisher Scientific PA5-29959; 1:1000 in 1% milk+0.1% Tween-20), MCAD (Thermo Fisher Scientific PA5-27201; 1:1000 in 3% BSA), and SCAD (Abcam ab154823; 1:1000 in 3% BSA). Coomassie stained gels were then processed for proteomics analysis (see below). Biotinylated SAHB pulldowns of recombinant protein were performed as above incubating 5 nmol of SAHB with 10 pmol of rVLCAD in 500 μL total volume. Densitometry analyses were performed using ImageJ software."}}, "note": "Bridge positions count the residues as written; N and C are the ends. Square brackets hold non-standard residues; d marks the D form. Ends that are not written are not given here. S5 = C=CCCC[C@](C)(N)C(=O)O"}
{"substance": "E211A: biotinylated MCL-1 SAHBD alanine point mutant E211A (RKALATLRRVGDGV[S5]RNH[S5]TAF; staple 15-19; also: biotinylated, place not given here)", "values": [{"measurement": "summary of binding properties: binding to MCL-1", "setting": "endogenous MCL-1", "result": "Binds"}, {"measurement": "summary of binding properties: binding to VLCAD", "setting": "native VLCAD", "result": "Binds"}]}
{"substance": "G217A: biotinylated MCL-1 SAHBD alanine point mutant G217A (RKALETLRRVADGV[S5]RNH[S5]TAF; staple 15-19; also: biotinylated, place not given here)", "values": [{"measurement": "summary of binding properties: binding to MCL-1", "setting": "endogenous MCL-1", "result": "weakly or not"}, {"measurement": "summary of binding properties: binding to VLCAD", "setting": "native VLCAD", "result": "Binds"}]}
{"substance": "G219A: biotinylated MCL-1 SAHBD alanine point mutant G219A (RKALETLRRVGDAV[S5]RNH[S5]TAF; staple 15-19; also: biotinylated, place not given here)", "values": [{"measurement": "summary of binding properties: binding to MCL-1", "setting": "endogenous MCL-1", "result": "Binds"}, {"measurement": "summary of binding properties: binding to VLCAD", "setting": "native VLCAD", "result": "Binds"}]}
{"substance": "H224A: biotinylated MCL-1 SAHBD alanine point mutant H224A (RKALETLRRVGDGV[S5]RNA[S5]TAF; staple 15-19; also: biotinylated, place not given here)", "values": [{"measurement": "summary of binding properties: binding to MCL-1", "setting": "endogenous MCL-1", "result": "Does not bind"}, {"measurement": "summary of binding properties: binding to VLCAD", "setting": "native VLCAD", "result": "Does not bind"}]}
{"substance": "K208A: biotinylated MCL-1 SAHBD alanine point mutant K208A (RAALETLRRVGDGV[S5]RNH[S5]TAF; staple 15-19; also: biotinylated, place not given here)", "values": [{"measurement": "summary of binding properties: binding to MCL-1", "setting": "endogenous MCL-1", "result": "diminished binding"}, {"measurement": "summary of binding properties: binding to VLCAD", "setting": "native VLCAD", "result": "enhanced binding"}]}
{"substance": "L210A: biotinylated MCL-1 SAHBD alanine point mutant L210A (RKAAETLRRVGDGV[S5]RNH[S5]TAF; staple 15-19; also: biotinylated, place not given here)", "values": [{"measurement": "summary of binding properties: binding to MCL-1", "setting": "endogenous MCL-1", "result": "Binds"}, {"measurement": "effect of alanine mutation on biotinylated MCL-1 SAHBD interaction with VLCAD", "setting": "native VLCAD; pull-downs from MEF lysates", "result": "uniquely disruptive"}, {"measurement": "summary of binding properties: binding to VLCAD", "setting": "native VLCAD", "result": "weakly or not"}]}
{"substance": "T212A: biotinylated MCL-1 SAHBD alanine point mutant T212A (RKALEALRRVGDGV[S5]RNH[S5]TAF; staple 15-19; also: biotinylated, place not given here)", "values": [{"measurement": "summary of binding properties: binding to MCL-1", "setting": "endogenous MCL-1", "result": "weakly or not"}, {"measurement": "summary of binding properties: binding to VLCAD", "setting": "native VLCAD", "result": "Binds"}]}
{"substance": "T226A: biotinylated MCL-1 SAHBD alanine point mutant T226A (RKALETLRRVGDGV[S5]RNH[S5]AAF; staple 15-19; also: biotinylated, place not given here)", "values": [{"measurement": "summary of binding properties: binding to MCL-1", "setting": "endogenous MCL-1", "result": "diminished binding"}, {"measurement": "summary of binding properties: binding to VLCAD", "setting": "native VLCAD", "result": "diminished binding"}]}
{"substance": "V216A: biotinylated MCL-1 SAHBD alanine point mutant V216A (RKALETLRRAGDGV[S5]RNH[S5]TAF; staple 15-19; also: biotinylated, place not given here)", "values": [{"measurement": "summary of binding properties: binding to MCL-1", "setting": "endogenous MCL-1", "result": "weakly or not"}, {"measurement": "summary of binding properties: binding to VLCAD", "setting": "native VLCAD", "result": "Binds"}]}
